Measured values reported in US11166479B2, “Feedstuffs for aquaculture comprising stearidonic acid” (COMMONWEALTH SCIENTIFIC AND INDUSTRIAL RESEARCH ORGANISATION, priority 2005, dated 2021).

Tested on: yeast strain S288Cα
Test: Heterologous expression of E. plantagineum Δ6-desaturase gene in yeast, conversion of fed fatty acids
Format: cell-based
Conditions: 20° C., 2-3 days
Procedure: Expression experiments in yeast were carried out to confirm that the cloned E. platangineum gene (cDNA sequence provided as SEQ ID NO:25) encoded a Δ6-desaturase enzyme. The gene fragment was inserted as an XbaI-SacI fragment into the […] sites of the yeast expression vector pSOS (Stratagene) containing the constitutive ADH1 promoter, resulting in plasmid pXZP271. This was transformed into yeast strain S288Cα by a heat shock method and transformant colonies selected by plating on minimal media plates. For the analysis of enzyme activity, 2 mL yeast clonal cultures were grown to an O.D.600 of 1.0 in yeast minimal medium in the presence of 0.1% NP-40 at 30° C. with shaking. Precursor free-fatty acids, either linoleic or linolenic acid as 25 mM stocks in ethanol, were added so that the final concentration of fatty acid was 0.5 mM. The cultures were transferred to 20° C. and grown for 2-3 days with shaking. Yeast cells were harvested by repeated centrifugation and washing first with 0.1% NP-40, then 0.05% NP-40 and finally with water. Fatty acids were extracted and analyzed. The peak identities of fatty acids were confirmed by GC-MS.

B1: EplD6Des: Δ6 desaturase from Echium plantagineum, polypeptide of 438 amino acid residues, expressed in yeast from plasmid pXZP271 (protein, listed as Echium plantagineum)
chain: MANAIKKYITAEELKKHDKAGDLWISIQGKIYDVSDWLKDHPGGNFPLLSLAGQEVTDAFVAFHSGTTWKLLEKFFTGYYLKDYSVSEVSKDYRKLVFEFNKMGLFDKKGHIVLVTVLFIAMLFGMSVYGVLFCEGVLVHLLAGGLMGFVWIQSGWIGHDAGHYIVMPDARLNKLMGIVAANCLSGISIGWWKWNHNAHHIACNSLDYDPDLQYIPFLVVSSKLFSSLTSHFYEKKLTFDSLSRFFVSHQHWTFYPVMCMARVNMFVQSLIMLLTKRNVFYRSQELLGLVVFWIWYPLLVSCLPNWGERVMFVVASLSVTGMQQVQFSLNHFSSSVYVGQPKGNDWFEKQTCGTLDISCPSWMDWFHGGLQFQVEHHLFPKLPRCHLRKISPFVMELCKKHNLSYNCASFSEANNMTLRTLRDTALQARDLTKPLPKNLVWEALNTHG
LA converted to GLA (0.5 mM linoleic acid fed): Around 2.9% | ALA converted to SDA (0.5 mM linolenic acid fed): ~2.3%
